Experimental data reported in paper PMC7404038, “Chaperone-Like Activity of HSPB5: The Effects of Quaternary Structure Dynamics and Crowding” (International Journal of Molecular Sciences, 2020).

B1: glycogen phosphorylase b from rabbit skeletal muscles (enzyme, UniProt P00489 1-843, looked up)
chain: MSRPLSDQEKRKQISVRGLAGVENVTELKKNFNRHLHFTLVKDRNVATPRDYYFALAHTVRDHLVGRWIRTQQHYYEKDPKRIYYLSLEFYMGRTLQNTMVNLALENACDEATYQLGLDMEELEEIEEDAGLGNGGLGRLAACFLDSMATLGLAAYGYGIRYEFGIFNQKICGGWQMEEADDWLRYGNPWEKARPEFTLPVHFYGRVEHTSQGAKWVDTQVVLAMPYDTPVPGYRNNVVNTMRLWSAKAPNDFNLKDFNVGGYIQAVLDRNLAENISRVLYPNDNFFEGKELRLKQEYFVVAATLQDIIRRFKSSKFGCRDPVRTNFDAFPDKVAIQLNDTHPSLAIPELMRVLVDLERLDWDKAWEVTVKTCAYTNHTVLPEALERWPVHLLETLLPRHLQIIYEINQRFLNRVAAAFPGDVDRLRRMSLVEEGAVKRINMAHLCIAGSHAVNGVARIHSEILKKTIFKDFYELEPHKFQNKTNGITPRRWLVLCNPGLAEIIAERIGEEYISDLDQLRKLLSYVDDEAFIRDVAKVKQENKLKFAAYLEREYKVHINPNSLFDVQVKRIHEYKRQLLNCLHVITLYNRIKKEPNKFVVPRTVMIGGKAAPGYHMAKMIIKLITAIGDVVNHDPVVGDRLRVIFLENYRVSLAEKVIPAADLSEQISTAGTEASGTGNMKFMLNGALTIGTMDGANVEMAEEAGEENFFIFGMRVEDVDRLDQRGYNAQEYYDRIPELRQIIEQLSSGFFSPKQPDLFKDIVNMLMHHDRFKVFADYEEYVKCQERVSALYKNPREWTRMVIRNIATSGKFSSDRTIAQYAREIWGVEPSRQRLPAPDEKIP
notes: glycogen phosphorylase, muscle form, b form, rabbit; subunit 97.4 kDa as printed; In the assays partially unfolded by heating at 48 °C; also called Phb; muscle glycogen phosphorylase b
B2: Human full-length untagged HSPB5 (αB-crystallin) (natural protein, UniProt P02511 1-175, looked up)
chain: MDIAIHHPWIRRPFFPFHSPSRLFDQFFGEHLLESDLFPTSTSLSPFYLRPPSFLRAPSWFDTGLSEMRLEKDRFSVNLDVKHFSPEELKVKVLGDVIEVHGKHEERQDEHGFISREFHRKYRIPADVDPLTITSSLSSDGVLTVNGPRKQVSGPERTIPITREEKPAVTAAPKK
notes: αB-crystallin (HSPB5), human, full length, untagged; subunit mass 20.2 kDa as printed; Polydisperse oligomer whose size depends on concentration, temperature and crowding; the preparation was a gift of N. Sluchanko; also called the chaperone; source: expressed and purified as described earlier [104]

Experiments:
[1] = biological target: the molecule itself; assay: AUC; sedimentation velocity, Phb 0.5 mg/mL with HSPB5 0, 0.025 or 0.075 mg/mL, 30 mM Hepes, pH 6.8, 0.1 M NaCl, 0.2 mM EDTA, 48 °C, 48,000 rpm; masses by the Svedberg equation with diffusion coefficients from DLS
[2] = biological target: B1; assay: cell-based or functional assay
[3] = biological target: T1, Ca2+-depleted α-lactalbumin (UniProt P00711 20-142); assay: cell-based or functional assay
T1 sequence (looked up): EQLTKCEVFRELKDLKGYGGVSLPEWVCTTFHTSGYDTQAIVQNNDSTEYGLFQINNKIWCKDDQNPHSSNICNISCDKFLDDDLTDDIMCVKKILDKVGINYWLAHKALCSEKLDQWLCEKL

[4] = biological target: the molecule itself; assay: AUC; sedimentation velocity, Phb 0.4 mg/mL, HSPB5 0.26 mg/mL and their mixture, Hepes buffer with PEG 20 kDa 25 mg/mL and PVP 25 kDa 12.5 mg/mL (mixed crowding), 48 °C, 48,000 rpm

B1
stoichiometry N [1]: 2

B2
stoichiometry S0 of the chaperone-target protein complex from suppression of thermal aggregation of Phb at 48 °C (DLS; Kagg/Kagg,0 = 1 − x/S0) [2]: 0.31 HSPB5 subunits per Phb monomer (molar ratio)
initial stoichiometry S0 of the HSPB5-αLa complexes from suppression of DTT-induced aggregation of αLa at 37 °C (DLS; (Kagg/Kagg,0)^1/b versus [HSPB5]/[αLa]) [3]: 0.011 HSPB5 subunits per αLa molecule (molar ratio)
binding result [4]: binds
